Measured values as given in EP3466970A1 (Orum Therapeutics Inc., dated 2019).

Target: T1, mCherry (red fluorescence) H-RAS G12V expressed in NIH3T3 cells (UniProt P01112 1-186, limits assumed)
T1 construct: Intracellular target at the inner cell membrane; also called intracellular H-RAS G12V mutants
Test: confocal microscopy, colocalisation in NIH3T3 cells expressing mCherry H-RAS G12V

B1: cytosol-penetrating antibody (cytotransmab) TMab4 (antibody, V domains shown)
VH: EVQLVESGGGLVQPGGSLRLSCAASGYTFTSYVMHWVRQAPGKGLEWVSAINPYNDGNYYADSVKGRFTISRDNSRKTLYLQMNSLRAEDTAVYYCARGAYKRGYAMDYWGQGTTVTVSS
VL: DLVMTQSPSSLSASVGDRVTITCKSSQSLFNSRTRKNYLAWYQQKPGKAPKLLIYWASTRESGVPSRFSGSGSGTDFTLTISSLQPEDFATYYCQQYYYHMYTFGQGTKVEIKR
notes: Intact IgG-format monoclonal antibody; Used as negative control in the RAS assays; also called CT
B1: no binding (tested: 2 µM).
